Laboratory results from publication PMC4946995 (Cell, 2016).

T1: Hrd1-SBP (S. cerevisiae, UniProt Q08109 1-551)
T1 sequence (looked up): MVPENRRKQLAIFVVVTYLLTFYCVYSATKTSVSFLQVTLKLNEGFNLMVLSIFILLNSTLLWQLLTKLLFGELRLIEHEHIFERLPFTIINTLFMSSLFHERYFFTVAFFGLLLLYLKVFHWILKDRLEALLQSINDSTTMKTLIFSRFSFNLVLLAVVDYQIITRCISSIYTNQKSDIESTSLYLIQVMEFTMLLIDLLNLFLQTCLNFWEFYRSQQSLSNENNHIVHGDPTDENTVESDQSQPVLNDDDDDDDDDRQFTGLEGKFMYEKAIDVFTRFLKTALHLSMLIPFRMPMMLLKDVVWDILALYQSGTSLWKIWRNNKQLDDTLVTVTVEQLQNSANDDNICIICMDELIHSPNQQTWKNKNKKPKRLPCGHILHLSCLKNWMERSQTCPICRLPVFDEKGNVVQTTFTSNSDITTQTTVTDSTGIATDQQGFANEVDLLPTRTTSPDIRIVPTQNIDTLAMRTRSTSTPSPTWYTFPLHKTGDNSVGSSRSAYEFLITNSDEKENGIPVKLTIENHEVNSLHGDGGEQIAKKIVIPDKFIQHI


Legend:
Hrd1-SBP (S. cerevisiae) = Hrd1-SBP (S. cerevisiae) (UniProt Q08109); test: pull-down
Hrd1-SBP = biological target: T1, Hrd1-SBP; test: pull-down

Molecule | Kd (Hrd1-SBP (S. cerevisiae)) | Kd (Hrd1-SBP)
misfolded carboxypeptidase Y (CPY*) (from UniProt P00729 21-532) (natural protein) | 20 nM | 
CPY-TM (other, DyLight800 at the C-terminus, attached with sortase (GGGC-coupled fluorophore)) ISLQRPLGLDKDVLLQAAEKFGLDLDLDHLLKELDSNVLDAWAQIEHLYPNQVMSLETSTKPKFPEAIKTKKDWDFVVKNDAIENYQLRVNKIKDPKILGIDPNVTQYTGYLDVEDEDKHFFFWTFESRNDPAKDPVILWLNGGPGCSSLTGLFFELGPSSIGPDLKPIGNPYSWNSNATVIFLDQPVNVGFSYSGSSGVSNTVAAGKDVYNFLELFFDQFPEYVNKGQDFHIAGESYAGHYIPVFASEILSHKDRNFNLTSVLIGNGLTDPLTQYNYYEPMACGEGGEPSVLPSEECSAMEDSLERCLGLIESCYDSQSVWSCVPATIYCNNAQLAPYQRTGRNVYDIRKDCEGGNLCYPTLQDIDDYLNQDYVKEAVGAEVDHYESCNFDINRNFLFAGDWMKPYHTAVTDLLNQDLPILVYAGDKDFICNWLGNKAWTDVLPWKYDEEFASQKVRNWTASITDEVAGEVKSYKHFTYLRVFNGGHMVPFDVPENALSMVNEWIHGGFSLNYGIFICYIAFNYIAGVFFYWLA |  | ~120 nM
CPY*-TM2 (other, DyLight800 at the C-terminus, attached with sortase (GGGC-coupled fluorophore)) ISLQRPLGLDKDVLLQAAEKFGLDLDLDHLLKELDSNVLDAWAQIEHLYPNQVMSLETSTKPKFPEAIKTKKDWDFVVKNDAIENYQLRVNKIKDPKILGIDPNVTQYTGYLDVEDEDKHFFFWTFESRNDPAKDPVILWLNGGPGCSSLTGLFFELGPSSIGPDLKPIGNPYSWNSNATVIFLDQPVNVGFSYSGSSGVSNTVAAGKDVYNFLELFFDQFPEYVNKGQDFHIARESYAGHYIPVFASEILSHKDRNFNLTSVLIGNGLTDPLTQYNYYEPMACGEGGEPSVLPSEECSAMEDSLERCLGLIESCYDSQSVWSCVPATIYCNNAQLAPYQRTGRNVYDIRKDCEGGNLCYPTLQDIDDYLNQDYVKEAVGAEVDHYESCNFDINRNFLFAGDWMKPYHTAVTDLLNQDLPILVYAGDKDFICNWLGNKAWTDVLPWKYDEEFASQKVRNWTASITDEVAGEVKSYKHFTYLRVFNGGHMVPFDVPENALSMVNEWIHGGFSLMLLFFWIPLTLVLLLCFTLSNL |  | ~30 nM
CPY-TM2 (other, DyLight800 at the C-terminus, attached with sortase (GGGC-coupled fluorophore)) ISLQRPLGLDKDVLLQAAEKFGLDLDLDHLLKELDSNVLDAWAQIEHLYPNQVMSLETSTKPKFPEAIKTKKDWDFVVKNDAIENYQLRVNKIKDPKILGIDPNVTQYTGYLDVEDEDKHFFFWTFESRNDPAKDPVILWLNGGPGCSSLTGLFFELGPSSIGPDLKPIGNPYSWNSNATVIFLDQPVNVGFSYSGSSGVSNTVAAGKDVYNFLELFFDQFPEYVNKGQDFHIAGESYAGHYIPVFASEILSHKDRNFNLTSVLIGNGLTDPLTQYNYYEPMACGEGGEPSVLPSEECSAMEDSLERCLGLIESCYDSQSVWSCVPATIYCNNAQLAPYQRTGRNVYDIRKDCEGGNLCYPTLQDIDDYLNQDYVKEAVGAEVDHYESCNFDINRNFLFAGDWMKPYHTAVTDLLNQDLPILVYAGDKDFICNWLGNKAWTDVLPWKYDEEFASQKVRNWTASITDEVAGEVKSYKHFTYLRVFNGGHMVPFDVPENALSMVNEWIHGGFSLMLLFFWIPLTLVLLLCFTLSNL |  | ~110 nM
